{
  "source": "patent US20060110789A1",
  "about": "“Methods to mediate polyketide synthase module effectiveness” (priority 2002, published 2006)",
  "key": {"diketide thioester": {"tested_on": "diketide thioester", "assay": "Kinetic constants kcat and KM of single module constructs converting diketide to triketide", "format": "biochemical", "description": "(§1) A cell-free system, tested for the ability to convert the cysteamine thioester of 2S,3R-2-methyl-3-hydroxypentanoic acid (compound 2 in FIG. 2), consisted of 0.5-10 mM concentration of the thioester, 2.5 mM ^14C-labeled methylmalonyl CoA and 100 pmoles of purified protein prepared in Example 1 in a 100 μl reaction. In some cases, 1 mM of NADPH was added; this was done in assay mixtures containing (M2+TE), (M5+TE) and (M6+TE) proteins. The protein was, in each case, a single module of the DEBS PKS fused to the thioesterase (TE) termination region of module 6.\nThe various constructs which are successful in converting diketide to triketide were then evaluated for the kinetic constants kcat and KM. […] This is evidently due to the absence of beta-carbonyl modifying enzymes in module 3 as verified by the fact that removal of NADPH, (which is required for the activity of such modules) from the reaction mixture of (N-ERL-M6+TE) also results in a lowering of the kcat."}, "[1]": {"tested_on": "cysteamine thioester of 2S,3R-2-methyl-3-hydroxypentanoic acid (diketide)", "assay": "Cell-free synthesis of triketides from diketide thioester by single module constructs", "format": "biochemical", "settings": "0.5-10 mM diketide thioester, 2.5 mM 14C-methylmalonyl CoA, 100 pmoles protein, 30 minutes, TLC", "description": "as §1\nThe reaction mixtures were quenched and extracted by ethyl acetate and separated by thin-layer chromatography (TLC) to discern the formation of the triketide ketolactone 3 and triketide lactone 4 (both shown in FIG. 2) after 30 minutes.\nThe constructs for (M2+TE) and (M6+TE) were modified by deleting the sequences encoding the amino acids upstream of the KS catalytic domain and substituting the first 39 amino acids from (M5+TE) containing the N-terminal portion of the interpolypeptide linker (N-ERL). The relevant constructs were prepared by replacing the BsaBI-EcoRI fragment in pRSG46 by the corresponding fragment from pCK4 to obtain N-ERL-M2+TE), in plasmid pRSG64, or from pJRJ10 to obtain (N-ERL-M6+TE) in plasmid pRSG54. These constructs yield modules which contain the upstream 39 amino acids from module 5."}, "[2]": {"tested_on": "M3+TE or (5)M3+TE (DEBS module 3 fused to thioesterase)", "assay": "Coincubation of donor module 2 proteins with module 3+TE: tetraketide lactone 2 formation and KD", "format": "biochemical", "settings": "acceptor (5)M3+TE, matched M4-M5 linker pair, saturation curve", "description": "Assays of M2 and M3+TE contained 10 μM M2 and […] M3+TE, 7 mM NDK, 0.5 mM ^14C-methylmalonyl-CoA (specific activity reduced to 3.4 mCi/mmol), 4 mM NADPH, 440 mM sodium phosphate, 1 mM EDTA, 2.5 mM DTT, and 20% w/v glycerol, pH 7.2, in 70 μL. Assays of M2(4) and (5)M3+TE were identical, except they contained 0.5 μM M2(4), 0.5-5 μM (5)M3+TE, and 0.4 mM ^14C-methylmalonyl-CoA (specific activity reduced to 6.2 mCi/mmol). The concentration of M2(4) was limiting in order to facilitate its saturation with (5)M3+TE. The reactions were prewarmed at 30° C. and initiated by the addition of the methylmalonyl-CoA. As described above, 20 μL aliquots were removed at various time points and processed. […]\nFor tetraketide formation, the rate of production of tetaketide was recorded for varying concentrations of M3+TE [or (5)M3+TE] at a fixed concentration of M2 [or M2(4)] and saturating concentrations of substrates. By fitting the rate dependence of tetraketide to a saturation curve, the maximal velocity (vmax) of tetraketide production was determined, and was assumed to represent the case where every M2 homodimer was productively associated with an M3+TE homodimer. Thus, the affinity of this protein-protein interaction could be calculated from the rate v=kcat[M2−M3] […]"}, "[3]": {"tested_on": "N-acetylcysteamine thioester of (2S,3R)-2-methyl-3-hydroxypentanoic acid diketide (NDK)", "assay": "In vitro polyketide production assays of individual modules with NDK (kinetic analysis)", "format": "biochemical", "settings": "NDK 1-10 mM, 1.0 μM protein, 30° C; M2 and M2(4) only approximate (triketide lactone 3)", "description": "In Vitro Polyketide Production Assays of individual modules contained 1.0 μM protein, 1-10 mM N-acetylcysteamine thioester of the “natural” (2S,3R)-2-methyl-3-hydroxypentanoic acid diketide (NDK) (1), 4 mM NADPH, 440 mM sodium phosphate, 1 mM EDTA, 2.5 mM dithiothreitol (DTT), and 20% w/v glycerol, pH 7.2, in 80 μL. Reactions with M2 or M2(4) included 0.3 mM ^14C-methylmalonyl-CoA (specific activity adjusted to 10.4 mCi/mmol), and those with M3+TE or (5)M3+TE included 0.5 mM ^14C-methylmalonyl-CoA (specific activity reduced to 1.1 mCi/mmol). [M2(4) refers to a derivative of M2 in which the C-terminal linker has been replaced with its counterpart from module 4, whereas (5)M3 refers to a derivative of M3 in which the N-terminal linker has been replaced with its counterpart from module 5 (see FIG. 4).] […] Product formation was quantified by comparison with standards of the labeled methylmalonyl-CoA. […]\nKinetic Analysis. For individual modules, the steady-state turnover number was determined from the time course of triketide formation, normalized to the concentration of protein. The dependence of the rate on substrate concentration was measured by varying the concentration of NDK while maintaining saturating levels of NADPH and methylmalonyl-CoA."}, "[4]": {"molecular_target": "M3+TE or (5)M3+TE (DEBS module 3 fused to thioesterase)", "settings": "with M3+TE, cited from earlier work"}, "[5]": {"tested_on": "individually assayed modules, including M3+TE", "assay": "Effect of synthetic peptide on individually assayed modules", "format": "biochemical", "description": "In Vitro Polyketide Production Assays of individual modules contained 1.0 μM protein, 1-10 mM N-acetylcysteamine thioester of the “natural” (2S,3R)-2-methyl-3-hydroxypentanoic acid diketide (NDK) (1), 4 mM NADPH, 440 mM sodium phosphate, 1 mM EDTA, 2.5 mM dithiothreitol (DTT), and 20% w/v glycerol, pH 7.2, in 80 μL. Reactions with M2 or M2(4) included 0.3 mM ^14C-methylmalonyl-CoA (specific activity adjusted to 10.4 mCi/mmol), and those with M3+TE or (5)M3+TE included 0.5 mM ^14C-methylmalonyl-CoA (specific activity reduced to 1.1 mCi/mmol). [M2(4) refers to a derivative of M2 in which the C-terminal linker has been replaced with its counterpart from module 4, whereas (5)M3 refers to a derivative of M3 in which the N-terminal linker has been replaced with its counterpart from module 5 (see FIG. 4).] Both concentrations of methylmalonyl-CoA were saturating, but different concentrations were needed due to the disparate rates of turnover between the modules with and without the thioesterase. The reaction mixtures were preincubated to 30° C. and started with the addition of the methylmalonyl-CoA. […] Product formation was quantified by comparison with standards of the labeled methylmalonyl-CoA. […]\nInhibition of Tetraketide Production. […] The effect of the inhibitor was thus determined by dividing the inhibited rate by the control rate."}, "M2 and M3+TE": {"molecular_target": "T1, M2 and M3+TE (Saccharopolyspora erythraea, UniProt Q03131)", "T1 construct": "Plasmid pBP19 contains module 2 of DEBS (M2) and is a derivative of pRSG64; made in house; host or cells: E. coli BL21(DE3) with B. subtilis sfp; pET-21c", "T1 sequence (Q03131 1980-3491, added parts left off)": "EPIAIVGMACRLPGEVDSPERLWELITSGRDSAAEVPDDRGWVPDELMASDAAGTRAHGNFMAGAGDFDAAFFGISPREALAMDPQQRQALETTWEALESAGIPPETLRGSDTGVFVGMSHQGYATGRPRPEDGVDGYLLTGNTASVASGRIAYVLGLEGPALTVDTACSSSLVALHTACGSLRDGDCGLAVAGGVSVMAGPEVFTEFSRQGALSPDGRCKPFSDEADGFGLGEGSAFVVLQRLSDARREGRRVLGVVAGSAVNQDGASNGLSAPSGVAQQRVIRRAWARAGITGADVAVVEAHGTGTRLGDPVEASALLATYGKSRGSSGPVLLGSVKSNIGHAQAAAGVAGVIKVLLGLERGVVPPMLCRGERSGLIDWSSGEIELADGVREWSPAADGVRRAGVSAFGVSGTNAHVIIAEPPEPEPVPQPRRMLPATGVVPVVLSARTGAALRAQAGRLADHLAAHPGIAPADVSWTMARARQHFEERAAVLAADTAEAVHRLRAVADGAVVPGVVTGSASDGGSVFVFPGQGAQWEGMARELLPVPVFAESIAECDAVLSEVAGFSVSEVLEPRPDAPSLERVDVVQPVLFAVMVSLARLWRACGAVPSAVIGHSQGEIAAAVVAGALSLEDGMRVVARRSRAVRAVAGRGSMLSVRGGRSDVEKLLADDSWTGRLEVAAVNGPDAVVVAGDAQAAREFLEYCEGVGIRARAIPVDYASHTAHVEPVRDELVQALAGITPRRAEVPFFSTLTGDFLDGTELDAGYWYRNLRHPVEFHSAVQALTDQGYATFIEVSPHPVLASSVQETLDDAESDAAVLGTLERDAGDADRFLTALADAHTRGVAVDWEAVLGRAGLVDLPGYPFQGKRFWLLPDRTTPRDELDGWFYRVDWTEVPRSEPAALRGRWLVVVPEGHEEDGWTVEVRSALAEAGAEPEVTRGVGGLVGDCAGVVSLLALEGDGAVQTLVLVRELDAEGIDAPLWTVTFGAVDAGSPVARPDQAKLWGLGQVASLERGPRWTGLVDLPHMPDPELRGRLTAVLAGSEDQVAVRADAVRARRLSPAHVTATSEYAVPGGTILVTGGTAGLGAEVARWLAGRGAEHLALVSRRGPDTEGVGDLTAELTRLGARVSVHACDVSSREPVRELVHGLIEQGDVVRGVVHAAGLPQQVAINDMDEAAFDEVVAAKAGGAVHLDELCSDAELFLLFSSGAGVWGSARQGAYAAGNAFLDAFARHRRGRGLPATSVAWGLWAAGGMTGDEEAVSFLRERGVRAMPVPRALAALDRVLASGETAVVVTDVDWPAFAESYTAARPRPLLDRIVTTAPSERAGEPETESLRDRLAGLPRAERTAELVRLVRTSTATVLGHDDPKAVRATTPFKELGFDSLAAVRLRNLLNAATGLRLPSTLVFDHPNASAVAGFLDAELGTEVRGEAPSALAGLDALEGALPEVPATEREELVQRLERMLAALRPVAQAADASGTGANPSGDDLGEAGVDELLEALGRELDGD", "assay": "Inhibition of tetraketide production by synthetic peptide, M2-M3 linker pair", "format": "biochemical", "settings": "M2 and M3+TE both 1.0 μM, peptide 1 to 100 μM", "description": "(§2) Inhibition of Tetraketide Production. The ability of the synthetic peptide to inhibit the transfer reaction, and thus the production of tetraketide, was tested under the same reaction conditions described for the two module coincubations. The concentrations of M2 and M3+TE were both 1.0 μM, and the concentrations of M2(4) and (5)M3+TE were 0.5 and 1.0 μM, respectively. The only difference was the addition of the peptide at concentrations ranging from 1 to 100 μM to the assay containing M2 and M3+TE [or alternatively M2(4) and (5)M3+TE]. For greater accuracy, each inhibition assay was performed side by side with a control lacking inhibitor. The effect of the inhibitor was thus determined by dividing the inhibited rate by the control rate."}, "M2(4) and (5)M3+TE": {"molecular_target": "T2, M2(4) and (5)M3+TE (Saccharopolyspora erythraea, UniProt Q03131+Q03133, A1559G/A1612M/A1613S/A1621R/A1638S/A1707S/A1714P/A1717D/A1741R/A1766S/A1884G/A1933P/A1935T/A1951R/A1969R/A1973H/A1979Q/A2007V/A2008V/A2011V/A2018D/A2064V/A2138S/D1597P/D1620G/DEL1744-1744/DEL1923-1924/DEL1955-1967/E1628D/E1873D/E1883D/E1925V/E1947G/E1993A/E2004D/F1591L/G1618A/G1705A/G1739A/G1878E/G1927Q/G1930R/G1977A/G1990A/G1997H/G2038E/G2099R/H1599E/H1992T/I1756V/INS1626G/INS1975[…]/K1779R/K2139R/L1590A/L1610V/L1858V/L1941V/L1981F/L1987V/L1995A/L2136R/L2141V/L2144V/N1593S/N1855E/N1936G/P1725G/P1740R/P1870G/P1887E/P1889S/P1982E/Q1619T/Q1732V/Q1746R/Q1994E/Q1998R/Q2070P/R1983E/R1996V/S1600T/S1627V/S1636T/S1637A/S1670T/S1886R/S1937V/S1972D/S2041P/S2089A/S2104V/T1762S/T1948A/T1968G/T1976R/T2012V/T2015S/V1583A/V1601L/V1622P/V1623R/V1640A/V1644I/V1655L/V1708P/V1728S/V1730F/V1851L/V1879I/V1929R/V1931M/V2006A/V2021S/V2103A/V2124A/V2131M/Y1614H)", "T2 construct": "Plasmid pST179 encodes a derivative of M2 containing the C-terminal linker of DEBS module 4 (M4); made in house; host or cells: E. coli BL21(DE3) with B. subtilis sfp; pET-21c", "T2 sequence (Q03131+Q03133 fused with the stated changes)": "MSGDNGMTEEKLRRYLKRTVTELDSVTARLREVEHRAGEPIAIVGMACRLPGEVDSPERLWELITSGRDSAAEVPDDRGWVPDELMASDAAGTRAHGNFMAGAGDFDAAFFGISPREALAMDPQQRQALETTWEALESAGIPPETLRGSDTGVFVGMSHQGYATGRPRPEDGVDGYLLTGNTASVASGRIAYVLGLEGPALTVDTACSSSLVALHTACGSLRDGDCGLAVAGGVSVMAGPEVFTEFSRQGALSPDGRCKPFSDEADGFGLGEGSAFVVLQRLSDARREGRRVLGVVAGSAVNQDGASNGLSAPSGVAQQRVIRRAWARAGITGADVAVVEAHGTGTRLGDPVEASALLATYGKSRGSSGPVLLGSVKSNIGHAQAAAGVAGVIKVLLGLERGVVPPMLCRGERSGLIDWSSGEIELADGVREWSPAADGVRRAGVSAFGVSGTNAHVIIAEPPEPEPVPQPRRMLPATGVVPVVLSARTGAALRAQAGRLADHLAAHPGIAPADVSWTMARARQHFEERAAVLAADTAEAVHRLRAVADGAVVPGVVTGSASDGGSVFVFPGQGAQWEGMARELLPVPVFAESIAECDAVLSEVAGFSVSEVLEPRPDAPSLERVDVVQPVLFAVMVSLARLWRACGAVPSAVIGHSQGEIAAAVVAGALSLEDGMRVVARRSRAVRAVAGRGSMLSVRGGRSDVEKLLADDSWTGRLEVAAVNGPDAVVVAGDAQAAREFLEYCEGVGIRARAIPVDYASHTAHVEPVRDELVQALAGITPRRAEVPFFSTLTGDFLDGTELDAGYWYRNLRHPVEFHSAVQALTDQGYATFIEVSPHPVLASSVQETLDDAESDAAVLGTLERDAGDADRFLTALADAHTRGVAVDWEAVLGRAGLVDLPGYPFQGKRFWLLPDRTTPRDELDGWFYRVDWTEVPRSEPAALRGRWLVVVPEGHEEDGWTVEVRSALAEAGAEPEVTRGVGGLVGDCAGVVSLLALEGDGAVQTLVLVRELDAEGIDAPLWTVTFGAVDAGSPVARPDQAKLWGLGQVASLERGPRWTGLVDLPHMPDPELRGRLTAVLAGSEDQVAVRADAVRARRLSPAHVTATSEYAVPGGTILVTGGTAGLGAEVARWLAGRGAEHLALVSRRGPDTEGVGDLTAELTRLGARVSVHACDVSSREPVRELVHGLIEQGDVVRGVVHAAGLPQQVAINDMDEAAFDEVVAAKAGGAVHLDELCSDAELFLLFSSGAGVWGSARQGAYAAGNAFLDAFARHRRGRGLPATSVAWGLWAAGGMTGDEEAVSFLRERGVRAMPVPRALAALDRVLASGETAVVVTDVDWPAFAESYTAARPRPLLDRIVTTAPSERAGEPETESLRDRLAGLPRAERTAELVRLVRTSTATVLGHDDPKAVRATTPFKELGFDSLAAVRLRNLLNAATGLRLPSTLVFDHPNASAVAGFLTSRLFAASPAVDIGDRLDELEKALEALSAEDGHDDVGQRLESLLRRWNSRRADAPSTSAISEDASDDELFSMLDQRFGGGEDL", "assay": "Inhibition of tetraketide production by synthetic peptide, M4-M5 linker pair", "format": "biochemical", "settings": "M2(4) 0.5 μM and (5)M3+TE 1.0 μM, peptide concentrations up to 100 μM", "description": "as §2"}, "[6]": {"settings": "diketide to triketide, cell-free"}, "[7]": {"settings": "listed as N-terminal linker of module 3"}, "[8]": {"settings": "listed as synthetic peptide mimic of the N-terminal linker of M3"}},
  "note": "“And” between values parts separate entries of the source, which are not always exact repeats. Equal entries are not always repeated.",
  "data": [
    {"substance": "ERL−M2+TE: module 2+TE with the first 39 amino acids from (M5+TE), N-terminal interpolypeptide linker (pRSG64)", "values": [
      {"measurement": "Km", "setting": "diketide thioester; [6]", "result": "4.6 ± 0.4", "unit": "mM"},
      {"measurement": "kcat × 100", "setting": "diketide thioester; [6]", "result": "8 ± 0.6", "unit": "min^−1"},
      {"measurement": "Triketide Formed", "setting": "[1]", "result": "Yes"}
    ]},
    {"substance": "ERL−M6+TE: module 6+TE with the first 39 amino acids from (M5+TE), N-terminal interpolypeptide linker (pRSG54)", "values": [
      {"measurement": "Km", "setting": "diketide thioester; [6]", "result": "4.3 ± 0.4", "unit": "mM"},
      {"measurement": "kcat × 100", "setting": "diketide thioester; [6]", "result": "9.5 ± 0.6", "unit": "min^−1"},
      {"measurement": "Km", "setting": "diketide thioester; −NADPH", "result": "4.1 ± 0.4", "unit": "mM"},
      {"measurement": "kcat × 100", "setting": "diketide thioester; −NADPH", "result": "4.5 ± 0.7", "unit": "min^−1"},
      {"measurement": "Triketide Formed", "setting": "[1]", "result": "Yes"}
    ]},
    {"substance": "M2(4): derivative of M2 containing the C-terminal linker of DEBS module 4 (pST179)", "values": [
      {"measurement": "kcat of tetraketide lactone 2 synthesis", "setting": "[2]", "result": "0.0123 ± 0.001 s⁻¹ and 0.0123 s⁻¹"},
      {"measurement": "kcat", "setting": "[3]", "result": "~0.0005", "unit": "s⁻¹"}
    ]},
    {"substance": "DEBS1: first protein of 6-deoxyerythronolide B synthase: loading module and extender modules 1 and 2", "values": [
      {"measurement": "Kd", "setting": "[4]; Gokhale et al. 1999, read-out: KD (previously reported value)", "result": 2.6, "unit": "µM"},
      {"measurement": "rate of formation of the same tetraketide (earlier measurement)", "setting": "[4]; Pieper et al. 1997", "result": 0.23, "unit": "min⁻¹"}
    ]},
    {"substance": "M5+TE: DEBS module 5 with its natural N-terminal linker fused to thioesterase (pRSG46)", "values": [
      {"measurement": "Km", "setting": "diketide thioester; [6]", "result": "4.7 ± 0.4", "unit": "mM"},
      {"measurement": "kcat × 100", "setting": "diketide thioester; [6]", "result": "7.5 ± 0.7", "unit": "min^−1"},
      {"measurement": "Triketide Formed", "setting": "[1]", "result": "Yes"}
    ]},
    {"substance": "H2N-MTDSEKVAEYLRRATLDLRAARQRIRELESD-amide (H-MTDSEKVAEYLRRATLDLRAARQRIRELESD-NH2) [M3 N-term]", "values": [
      {"measurement": "inhibitory effect upon individually assayed modules", "setting": "[5]", "result": "no inhibitory effect"},
      {"measurement": "inhibition of tetraketide production", "setting": "M2 and M3+TE; [7]", "result": "inhibit the formation of 2 in the presence of M2 and M3+TE in a concentration-dependent manner"},
      {"measurement": "inhibition of tetraketide production", "setting": "M2 and M3+TE; [8]", "result": "lowered the overall rate of tetraketide production in a dose-dependent fashion"},
      {"measurement": "inhibition of tetraketide production", "setting": "M2(4) and (5)M3+TE; [7]", "result": "No inhibitory effect"},
      {"measurement": "inhibition of tetraketide production", "setting": "M2(4) and (5)M3+TE; [8]", "result": "no such effect"}
    ]}
  ]
}
